Data taken from publication PMC2837359 (Journal of molecular biology, 2009).

Target: the molecule itself
Experiment: single particle electron microscopy

B1: galactose permease (GalP), H+/galactose symporter from E. coli, His6-tagged (natural protein, UniProt P0AEP1 1-464, looked up)
chain: MPDAKKQGRSNKAMTFFVCFLAALAGLLFGLDIGVIAGALPFIADEFQITSHTQEWVVSSMMFGAAVGAVGSGWLSFKLGRKKSLMIGAILFVAGSLFSAAAPNVEVLILSRVLLGLAVGVASYTAPLYLSEIAPEKIRGSMISMYQLMITIGILGAYLSDTAFSYTGAWRWMLGVIIIPAILLLIGVFFLPDSPRWFAAKRRFVDAERVLLRLRDTSAEAKRELDEIRESLQVKQSGWALFKENSNFRRAVFLGVLLQVMQQFTGMNVIMYYAPKIFELAGYTNTTEQMWGTVIVGLTNVLATFIAIGLVDRWGRKPTLTLGFLVMAAGMGVLGTMMHIGIHSPSAQYFAIAMLLMFIVGFAMSAGPLIWVLCSEIQPLKGRDFGITCSTATNWIANMIVGATFLTMLNTLGNANTFWVYAALNVLFILLTLWLVPETKHVSLEHIERNLMKGRKLREIGAHD
- stoichiometry N: 3
